US20260070986A1 (AFFIMED, published 2026)

What was measured:
[1] = biological target: T1, recombinant human FcγRI (CD64), biotinylated (human, UniProt P12314 16-288, limits assumed, site-directed biotinylation at AviTag); experiment: SPR (Biacore), 37 °C, biotin-captured human CD64 as ligand, steady-state plot; left-hand column, no heading on the sheet
T1 construct: also called human CD64
Method: FIG. 20: SPR interaction analysis of antibody binding to CD64 and murine CD16-2. […] Affinity parameters were evaluated for interaction with receptors using a Steady State Binding model.

[2] = biological target: T2, recombinant cynomolgus neonatal Fc receptor (FcRn), biotinylated (cynomolgus, UniProt Q8SPV9 24-297, limits assumed, site-directed biotinylation at AviTag); experiment: SPR (Biacore), 37 °C, pH 6.0, biotin-captured cynomolgus FcRn as ligand, steady-state affinity fit
T2 construct: also called cynomolgus FcRn
Method: (§1) Affinity parameters were evaluated for interaction with human FcRn, cynomolgus FcRn or murine FcRn using a Steady State Binding model (D-F).

[3] = biological target: T3, human CD16A (158F) on transfected CHO cells (cAg_34) (human, UniProt P08637 17-254); experiment: flow cytometry on huCD16A-transfected CHO cells (cAg_34), one-site fit of MFI, experiment 2
T3 construct: Exact cell-anchored construct not described; also called huCD16A
Method: (§2) After washing in FACS buffer, cells were incubated in 50 μL FACS buffer without antibodies or with titrated antibodies starting at a concentration of 100 μg/mL followed by ten 5-fold serial dilutions for 30 min on ice in the dark. After washing twice, cells were incubated with APC-conjugated goat anti-human IgG (H+L)-APC (Dianova, cat. 109-136-088) for 30 min on ice in the dark. […] After washing, binding was measured by flow cytometry and mean fluorescence intensities (MFI) of cell samples were calculated and corrected for background staining using control cells stained with secondary antibodies only.
(§3) Equilibrium dissociation constants (KD) of antibody binding were calculated by plotting MFI values and fitting a non-linear regression model for one-site binding to hyperbolic dose-response curves using GraphPad Prism.

[4] = biological target: T4, recombinant murine FcγRIIB (CD32), biotinylated (murine, UniProt P08101 30-207, limits assumed, site-directed biotinylation at AviTag); experiment: SPR (Biacore T200), 37 C, biotin-captured receptor
T4 construct: also called murine CD32B; mouse CD32B
T4 sequence (looked up): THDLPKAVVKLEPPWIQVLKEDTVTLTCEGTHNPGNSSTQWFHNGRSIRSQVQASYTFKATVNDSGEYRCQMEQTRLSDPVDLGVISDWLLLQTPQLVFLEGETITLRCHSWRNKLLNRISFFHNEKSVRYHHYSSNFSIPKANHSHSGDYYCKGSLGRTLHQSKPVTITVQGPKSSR
Method: (§4) Sensor chips were pre-equilibrated in HBS-P+ running buffer for 12 hours prior to the first measurement and the detectors were normalized using BIAnormalization solution (70% w/w glycerol) according to the manufacturer's instructions.
(§5) Interaction analysis of FcRn binding was performed at pH 6.0 in PBS/0.05% Tween 20; analytes and ligands were diluted in the same buffer. […] Ligand-free surfaces in FC1 and FC3 were used as references for response signals (FC2-1, FC4-3). Interaction analysis of CD64, CD32, and murine CD16-2 binding was performed in HBS-P+ buffer and analytes and ligands were diluted in the same buffer. Biotinylated Fcγ-Receptors were captured to a density of approximately 15 to 30 RU (FC2, FC3, and FC4) before increasing concentrations (500 nM to 4000 nM) of antibody were injected, using the single-cycle kinetic mode (FC1-FC4) at a flow rate of 40 μL/min for 100 seconds followed by dissociation for 90 seconds. A zero-concentration cycle and ligand-free surface in FC1 was used for referencing of response signals (FC2-1, FC3-1, and FC4-1). Sensor chip surfaces were prepared and regenerated before and after each measurement using Biotin Capture reagent (Biotin CAPture Kit, GE Healthcare) and 6 M guanidine-HCl, 0.25 M NaOH, respectively.
(§6) Binding affinities were determined by fitting data using the steady state affinity model of the Biacore T200 Evaluation software (v3.1).

[5] = biological target: T3, human CD16A (158F) on transfected CHO …; experiment: flow cytometry on huCD16A-transfected CHO cells (cAg_34), one-site fit of MFI, experiment 1
Method: as §2, §3

[6] = biological target: T5, recombinant human neonatal Fc receptor (FcRn), biotinylated (human, UniProt P55899 24-297, site-directed biotinylation at AviTag); experiment: SPR (Biacore T200), 37 C, pH 6.0, biotin-captured FcRn, steady-state affinity
T5 construct: also called human FcRn
Method: as §4, §5, §6

[7] = biological target: T2, recombinant cynomolgus neonatal Fc …; experiment: as above
Method: as §4, §5, §6

[8] = biological target: T6, recombinant murine neonatal Fc receptor (FcRn), biotinylated (murine, UniProt Q61559 22-297, limits assumed, site-directed biotinylation at AviTag); experiment: SPR (Biacore), 37 °C, pH 6.0, biotin-captured murine FcRn as ligand, steady-state affinity fit
T6 construct: also called murine FcRn
T6 sequence (looked up): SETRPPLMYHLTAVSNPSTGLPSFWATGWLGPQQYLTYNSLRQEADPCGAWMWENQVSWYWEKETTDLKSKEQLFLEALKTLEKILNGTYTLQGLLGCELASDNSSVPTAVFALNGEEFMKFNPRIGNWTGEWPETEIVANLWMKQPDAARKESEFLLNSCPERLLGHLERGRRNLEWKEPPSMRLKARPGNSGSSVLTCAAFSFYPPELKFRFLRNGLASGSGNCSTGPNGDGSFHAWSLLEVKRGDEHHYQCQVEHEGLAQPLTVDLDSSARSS
Method: as §1

[9] = biological target: T3, human CD16A (158F) on transfected CHO …; experiment: flow cytometry on huCD16A-transfected CHO cells (cAg_34), one-site fit of MFI, mean of 3 experiments
Method: as §2, §3

T3 sequence (P08637 17-254 limits assumed): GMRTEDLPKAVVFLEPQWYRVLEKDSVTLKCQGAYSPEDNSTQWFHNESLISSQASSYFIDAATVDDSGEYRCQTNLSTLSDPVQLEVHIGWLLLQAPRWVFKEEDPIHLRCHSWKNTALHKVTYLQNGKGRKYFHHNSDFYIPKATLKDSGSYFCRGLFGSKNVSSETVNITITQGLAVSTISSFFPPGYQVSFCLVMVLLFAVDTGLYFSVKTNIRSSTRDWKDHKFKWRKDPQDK
T2 sequence (Q8SPV9 24-297 limits assumed, form in doubt): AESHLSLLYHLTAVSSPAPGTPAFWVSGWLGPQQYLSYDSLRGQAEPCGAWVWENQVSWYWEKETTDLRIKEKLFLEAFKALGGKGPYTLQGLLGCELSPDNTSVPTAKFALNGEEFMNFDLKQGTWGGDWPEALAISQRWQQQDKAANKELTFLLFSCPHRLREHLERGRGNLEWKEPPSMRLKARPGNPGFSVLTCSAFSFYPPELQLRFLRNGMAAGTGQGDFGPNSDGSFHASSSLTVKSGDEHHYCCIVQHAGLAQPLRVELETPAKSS
T1 sequence (P12314 16-288 limits assumed): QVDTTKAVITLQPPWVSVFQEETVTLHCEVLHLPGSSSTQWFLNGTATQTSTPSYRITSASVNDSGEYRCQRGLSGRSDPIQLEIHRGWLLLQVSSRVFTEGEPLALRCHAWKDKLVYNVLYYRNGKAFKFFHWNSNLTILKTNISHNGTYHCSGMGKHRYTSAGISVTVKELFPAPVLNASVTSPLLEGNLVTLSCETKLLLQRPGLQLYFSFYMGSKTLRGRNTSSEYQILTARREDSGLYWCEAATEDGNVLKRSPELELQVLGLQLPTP
T5 sequence (P55899 24-297 limits assumed, form in doubt): as the sequence (Q8SPV9 24-297 limits assumed, form in doubt) above, with D39N, Q44E, S99G, G189S, N190S, M217L, T269S counted along it

binding result [1]: no binding
Kd [2]: 238 nM
Kd [3]: 7.8 nM
binding result [4]: no binding (tested: 500 nM to 4000 nM)
Kd [5]: 17.7 nM
Kd [6]: 364 nM
Kd [7]: 238 nM
Kd [8]: 72 nM
Kd [9]: 16.3 nM
B1: scFv-IgAb_268 (CD123-1xCD16a1) (bispecific antibody)
heavy: QVQLQQSGAEVKKPGASVKVSCKASGYTFTDYYMKWVKQSHGKSLEWMGDIIPSNGATFYNQKFKGKATLTVDRSTSTAYMELSSLRSEDTAVYYCARSHLLRASWFAYWGQGTLVTVSSASTKGPSVFPLAPSSKSTSGGTAALGCLVKDYFPEPVTVSWNSGALTSGVHTFPAVLQSSGLYSLSSVVTVPSSSLGTQTYICNVNHKPSNTKVDKKVEPKSCDKTHTCPPCPAPEFEGGPSVFLFPPKPKDTLMISRTPEVTCVVVAVSHEDPEVKFNWYVDGVEVHNAKTKPREEQYNSTYRVVSVLTVLHQDWLNGKEYKCKVSNKALPAPIEKTISKAKGQPREPQVYTLPPSREEMTKNQVSLTCLVKGFYPSDIAVEWESNGQPENNYKTTPPVLDSDGSFFLYSKLTVDKSRWQQGNVFSCSVMHEALHNHYTQKSLSLSPGGGGGSGGGGSGGGGSGGGGSGGGGSGGGGSSYELTQPLSVSVALGQTARITCGGNNIGSKSVHWYQQKPGQAPVLVIYQDKKRPSGIPERFSGSNSGNTATLTISRAQAGDEADYYCQVWDDYIVLFGCGTKLTVLGGSGGSGGSGGSGGSGGSGGSQVQLVQSGAEVKKPGASVKVSCKASGYTFTNYYMQWVRQAPGQCLEWMGIINPSGGVTSYAQKFQGRVTMTRDTSTSTVYMELSSLRSEDTAVYYCARGSAYYYDFADYWGQGTLVTVSS
light: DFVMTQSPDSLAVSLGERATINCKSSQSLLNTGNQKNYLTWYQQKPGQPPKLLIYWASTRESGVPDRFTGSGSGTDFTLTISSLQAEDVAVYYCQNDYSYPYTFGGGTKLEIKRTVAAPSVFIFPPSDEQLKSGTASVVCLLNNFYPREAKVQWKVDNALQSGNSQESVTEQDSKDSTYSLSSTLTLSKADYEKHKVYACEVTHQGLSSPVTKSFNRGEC
notes: also called AFM28; CD123xCD16A scFv-IgAb_268
